For test [1], the target named is Kv1.3 potassium channel (species not stated for this experiment). As to the kind of experiment: cell-based or functional assay.
The target in test [2] is mKv1.3 channel stably expressed in mouse L929 fibroblasts (mouse, UniProt P16390 1-528). The test can be described thus: cell-based or functional assay.
mKv1.3 channel stably expressed in mouse L929 fibroblasts, sequence (P16390 whole entry): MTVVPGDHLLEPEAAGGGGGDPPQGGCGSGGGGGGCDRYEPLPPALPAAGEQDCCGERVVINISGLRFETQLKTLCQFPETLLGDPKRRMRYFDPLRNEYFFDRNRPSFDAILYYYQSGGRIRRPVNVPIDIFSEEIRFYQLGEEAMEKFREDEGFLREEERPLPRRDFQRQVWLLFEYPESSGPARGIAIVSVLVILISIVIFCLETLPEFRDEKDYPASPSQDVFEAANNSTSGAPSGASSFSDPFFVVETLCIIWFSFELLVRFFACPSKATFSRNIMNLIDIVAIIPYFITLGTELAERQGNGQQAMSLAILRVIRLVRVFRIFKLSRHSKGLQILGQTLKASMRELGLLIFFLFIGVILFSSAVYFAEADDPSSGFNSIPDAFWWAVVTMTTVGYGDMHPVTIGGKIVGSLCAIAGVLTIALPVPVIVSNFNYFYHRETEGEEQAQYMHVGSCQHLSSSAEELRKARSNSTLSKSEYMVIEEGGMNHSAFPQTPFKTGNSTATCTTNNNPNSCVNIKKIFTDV

Turning to RSCIDTIPKSRCTAFKCKHSIKYRLSFCRKTCGTCA (3 disulfide bonds (oxidatively folded synthetic peptide)) [synthetic ShK-235], the “IC50 of block of Kv1.3 channel function (whole-cell patch-clamp)” value in test [1] is 0.062 nM. In test [2], the “IC50 of block of mKv1.3 currents (whole-cell patch-clamp, L929 cells)” value worked out at 0.0693 nM.
